{
  "source": "patent US20150086555A1",
  "conditions_in_all_cases": "remark: other sources report otherwise",
  "key": {"[1]": {"target": "recombinant soluble homotrimeric HA of A/duck/Yangzhou/02/05 (H8N4) (Influenza A virus A/duck/Yangzhou/02/2005(H8N4))", "assay": "trimeric HA microarray, transfection supernatant set 2"}, "[2]": {"target": "recombinant soluble homotrimeric HA, A/swine/Ontario/01911-2/99 H4N6 (Influenza A virus A/Swine/Ontario/01911-2/99 (H4N6))", "assay": "microarray, transfection SN IgG, trimeric HA"}, "[3]": {"target": "recombinant soluble homotrimeric HA of A/Anhui/1/05 (H5N1) (Influenza A virus A/Anhui/1/2005(H5N1))", "assay": "trimeric HA microarray, transfection supernatant set 3"}, "[4]": {"target": "recombinant soluble homotrimeric HA of A/California/4/09 (H1N1) (Influenza A virus A/California/04/2009(H1N1))", "assay": "trimeric HA microarray, transfection supernatant set 3"}, "[5]": {"target": "recombinant soluble homotrimeric HA of A/Egypt/3300-NAMRU3/08 (H5N1) (Influenza A virus A/Egypt/3300-NAMRU3/2008(H5N1))", "assay": "trimeric HA microarray, transfection supernatant set 3"}, "[6]": {"target": "recombinant soluble homotrimeric HA of A/Indonesia/5/05 (H5N1) (Influenza A virus A/Indonesia/5/2005(H5N1))", "assay": "trimeric HA microarray, transfection supernatant set 3"}, "[7]": {"target": "recombinant soluble homotrimeric HA of A/Japan/305/57 (H2N2) (Influenza A virus A/Japan/305/1957(H2N2))", "assay": "trimeric HA microarray, transfection supernatant set 3"}, "[8]": {"target": "recombinant soluble homotrimeric HA of A/Netherlands/219/03 (H7N7) (Influenza A virus A/Netherlands/219/03(H7N7))", "assay": "trimeric HA microarray, transfection supernatant set 3"}, "[9]": {"target": "recombinant soluble homotrimeric HA of A/Solomon Islands/3/06 (H1N1) (Influenza A virus A/Solomon Islands/3/2006(H1N1))", "assay": "trimeric HA microarray, transfection supernatant set 3"}, "[10]": {"target": "recombinant soluble homotrimeric HA of A/South Carolina/1/18 (H1N1) (Influenza A virus A/South Carolina/1/18 (H1N1))", "assay": "trimeric HA microarray, transfection supernatant set 3"}, "[11]": {"target": "recombinant soluble homotrimeric HA of A/Vietnam/1203/04 (H5N1) (Influenza A virus A/VietNam/1203/2004(H5N1))", "assay": "trimeric HA microarray, transfection supernatant set 3"}, "[12]": {"target": "recombinant soluble homotrimeric HA of A/chicken/Vietnam/NCVD-016/08 (H5N1) (Influenza A virus A/chicken/Vietnam/NCVD-016/2008(H5N1))", "assay": "trimeric HA microarray, transfection supernatant set 3"}},
  "data": [
    {"binder": "TCN-522 (3212_I12) (antibody, V domains shown) VH: QVQLQQWGAGLLKPSETLSLTCTVSGGSLTDYSWNWIRQPPGKGLEWIGDTLHNGYTNYNPSLRGRVSISIDTSKNQVSLRLTSVTAADTALYYCARGSGGYGGFDYFGKLRTWDFWGQGTLVTVSS VL: DIQLTQSPSSLSASVGDRVTITCRASQGIRNDLGWYQQKPGNAPKRLIFGASSLQSGVPSRFSGSGSGTEFTLTISSLQPEDFATYYCLQHNSYPYTFGQGTKLEIK", "values": [
      {"measurement": "Trimeric HA Binding: RLU", "setting": "[1]", "result": 1650, "unit": "RLU"}
    ]},
    {"binder": "TCN-557 (5081_A04) (antibody, V domains shown) VH: QVQLVQSGAEVKKPGASVKVSCKASGHTFTGYYIHWVRQAPGQGLEWMGWINPDSGATSSAQNFQGRVTMTGDTSSSTAYMELSRLSFDDTAVYYCARVLFTSPFDFWGEGTLVTVSS VL: QAVVTQEPSLAVSPGGTVTLTCGSSTGAVTRGHYPYWFQQKPGQAPRALIYDSAGNRHSWTPARFSGSLLGGKAALTLSGAQPEDEAEYYCLLSYSGVWVFGGGTKLTVL", "values": [
      {"measurement": "Trimeric HA Binding: RLU", "setting": "[2]", "result": 41500, "unit": "RLU"}
    ]},
    {"binder": "TCN-553 (5261_C18) (antibody, V domains shown) VH: QVQVVQSGTEVKKPGSSVKVSCQTSGGRFMSYAITWVRQAPGQGLEWMGGIVPVFGTANYAQKFQGRVTITTDDSTRTAYMELSSLRSEDTAVYYCGFRYGSGYGFDSWGQGTLVTVSS VL: EIVLTQSPGTLSLSPGERATLSCRASQSVSSSYLAWYQKKPGQAPRLLIYGASTRATGIPDRFTGSGSGTDFTLSISRLEPEDFAVYYCQHFGTSVFTFGGGTKVEIK", "values": [
      {"measurement": "Trimeric HA Binding: RLU", "setting": "[2]", "result": 12200, "unit": "RLU"}
    ]},
    {"binder": "TCN-550 (5096_F06) (antibody, V domains shown) VH: QVQLQESGPGLVKPSETLSLTCTVSGASINSHYWSWIRQPPGKGLEWIGYVYYSGSTTYNPSLKSRVTLSVDTSKNQFSLNLSSVTAADTAFYYCARHPYDVLTGSGDWFDPWGQGTLVTVSS VL: SYVLTQAPSVSVAPGQTARITCGGNAIGSKKVHWYQHKAGQAPVLVVYDDTDRPSGIPERFSGSNSWSTATLTINRVEAGDEADYYCQVWDFTIDHVVFGGGTKLTVL", "values": [
      {"measurement": "Trimeric HA Binding: RLU", "setting": "[2]", "result": 1700, "unit": "RLU"}
    ]},
    {"binder": "TCN-530 (5248_H10a) (antibody, V domains shown) VH: QVQLVQSGAEVRKPGSSVKVSCKASGGPFMSYAIGWVRQAPGQGLEWMGGINPVFGRPHYAQKFQGRVTIATDDSTKTSYMELSSLTSEDTGMYYCASRYSRSSPGTFESWGQGTLVTVSS VL: EIVMTQFPATLSVSPGERVTLSCRASQSVSNNLAWYQQKPGQPPRLLIYDASTRATGVPAKFSGTGSGTEFTLSISSLQSEDFAVYYCQQYHNWPPSYSFGLGTKLEIK", "values": [
      {"measurement": "Trimeric HA Binding: RLU", "setting": "[3]", "result": 97, "unit": "RLU"},
      {"measurement": "Trimeric HA Binding: RLU", "setting": "[4]", "result": 21200, "unit": "RLU"},
      {"measurement": "Trimeric HA Binding: RLU", "setting": "[5]", "result": 25500, "unit": "RLU"},
      {"measurement": "Trimeric HA Binding: RLU", "setting": "[6]", "result": 25500, "unit": "RLU"},
      {"measurement": "Trimeric HA Binding: RLU", "setting": "[7]", "result": 5170, "unit": "RLU"},
      {"measurement": "Trimeric HA Binding: RLU", "setting": "[8]", "result": 118, "unit": "RLU"},
      {"measurement": "Trimeric HA Binding: RLU", "setting": "[9]", "result": 13800, "unit": "RLU"},
      {"measurement": "Trimeric HA Binding: RLU", "setting": "[10]", "result": 17200, "unit": "RLU"},
      {"measurement": "Trimeric HA Binding: RLU", "setting": "[11]", "result": 25200, "unit": "RLU"},
      {"measurement": "Trimeric HA Binding: RLU", "setting": "[12]", "result": 18000, "unit": "RLU"}
    ]},
    {"binder": "TCN-552 (5249_I23) (antibody, V domains shown) VH: QVQVVQSGAEVKKPGSSVRVSCQASGGTFMNYAIIWVRRAPGQGLEWMGGIIPVFPTPNYAQMFQGRVTISTDESRSTSFLELTNLRYEDTAVYYCARRIYHGGNSGFDFWGQGTLVTVSS VL: EIVLTQSPATLSLSPGERATLSCRASQSVGNYLAWYQQKPGQAPRLLIYDSSNRAPGIPARFSGSGSGTDFTLTISSLAPEDFAVYYCQQRSKWPPMYSFGHGTKLEIK", "values": [
      {"measurement": "Trimeric HA Binding: RLU", "setting": "[2]", "result": 9080, "unit": "RLU"}
    ]},
    {"binder": "TCN-528 (5087_P17) (antibody, V domains shown) VH: QVQLVQSGSEVKKPGASVKVSCKASGYTFTNYDINWIRQAPGQGLEWMGWINPNSGTTGSAQRFQGRVTITVDTSITTVYMELSSLRSDDTAIYYCARGRELLRLQHFLTDSQSERRDCFDPWGQGTLVTVSS VL: DIQMTQSPSSLSASVGDRVTITCRANQDIGIYLNWYQQNPGKVPKLLLHGASSLQGGVPSRFSASGSGTDFTLTIHSLQPEDLATYYCQQSRRLPYTFGQGTRVELK", "values": [
      {"measurement": "Trimeric HA Binding: RLU", "setting": "[1]", "result": 19800, "unit": "RLU"}
    ]},
    {"binder": "TCN-527 (5086_C06) (antibody, V domains shown) VH: QVQLQESGPGLVKPSETLSLNCAVSGGSISNYYWSWIRQPPGKGLEWIGYISYNGRPKYNPSLTSRVTISVDTSKDQFSLELRSVTAADTALYYCARETRFGELLSPYDAFEIWGQGTMVTVSS VL: DIQMTQSPSSLSASVGDRVTMTCRASQNIRSYLNWYQQRPGTAPKLLIYAASTLHSGVPSRFSGGGSGTDFTLTINNLQPEDFASYYCQQSYDNPQTFGQGTKVEIK", "values": [
      {"measurement": "Trimeric HA Binding: RLU", "setting": "[1]", "result": 17900, "unit": "RLU"}
    ]},
    {"binder": "TCN-563 (5237_B21) (antibody, V domains shown) VH: QVQLAQSGAEVKRPGSSVKVSCTASGGIFRKNAISWVRQAPGQGLEWMGGIIAVFNTANYAQKFQGRVKITADESGNTAYMELSSLRSDDTAVYYCASHPKYFYGSGSYPDFWGQGTLVTVSS VL: QSALTQPRSVSGSPGQSVTISCTGSSSDVGASNSVSWYQQHPGKAPKLVIYDVTERPSGVPHRFSGSKSGNTASLTVSGLQPEDEADYFCCAYGGKYLVVFGGGTKVTVL", "values": [
      {"measurement": "Trimeric HA Binding: RLU", "setting": "[1]", "result": 6280, "unit": "RLU"}
    ]}
  ]
}
